The values that follow come from patent US20240101686A1.

Where two headings read alike, the source gives them in different places.

What all share (details): remark: other sources report otherwise
Assay [1] deals with human EGFR on cells (human), P00533.
For assay [2] the target is unchanged. The source holds these as a separate data set.
Assay [3] shares this target. The source holds these as a separate data set.
In assay [4] the target is human EGFR endogenously expressed on A431 cells (human), P00533.

B1: 30D8-hIgG1 (antibody, V domains shown)
VH: EVQLVESGGGLVKPGGSLRLSCEASGFTFSDAWMSWVRQAPGKGLEWVGRIKSKTDGGTTDYVVPLNGRFIISRDDSRNTLYLQLNNLKTEDTAVYYCTTVPGSYGYWGQGTLVTVSS
VL: DIVMTQSPLSLPVTPGEPASISCRSSQSLLHNKRNNYLDWFLQKPGQSPQLLIYLASNRASGVPDRFSGGGSGTDFTLKISRVEAEDVGVYYCMQAQQTPITFGQGTRLEIK
In the case of B1, the Max MFI in assay [1] turned out to be 143; in assay [3], 88; in assay [4] it was 712. This molecule displayed an Average fluorescence intensity in assay [2] of 528.
